# According to article PMC6312923 (Life Science Alliance, 2018):
# B1: Cdt2^PIP-3A: Cdt2 with I709, Y712, and F713 all mutated to alanine (protein, UniProt Q9NZJ0 1-730, looked up, variant I709A Y712A F713A)
# Denticleless protein homolog: MLFNSVLRQPQLGVLRNGWSSQYPLQSLLTGYQCSGNDEHTSYGETGVPVPPFGCTFSSAPNMEHVLAVANEEGFVRLYNTESQSFRKKCFKEWMAHWNAVFDLAWVPGELKLVTAAGDQTAKFWDVKAGELIGTCKGHQCSLKSVAFSKFEKAVFCTGGRDGNIMVWDTRCNKKDGFYRQVNQISGAHNTSDKQTPSKPKKKQNSKGLAPSVDFQQSVTVVLFQDENTLVSAGAVDGIIKVWDLRKNYTAYRQEPIASKSFLYPGSSTRKLGYSSLILDSTGSTLFANCTDDNIYMFNMTGLKTSPVAIFNGHQNSTFYVKSSLSPDDQFLVSGSSDEAAYIWKVSTPWQPPTVLLGHSQEVTSVCWCPSDFTKIATCSDDNTLKIWRLNRGLEEKPGGDKLSTVGWASQKKKESRPGLVTVTSSQSTPAKAPRAKCNPSNSSPSSAACAPSCAGDLPLPSNTPTFSIKTSPAKARSPINRRGSVSSVSPKPPSSFKMSIRNWVTRTPSSSPPITPPASETKIMSPRKALIPVSQKSSQAEACSESRNRVKRRLDSSCLESVKQKCVKSCNCVTELDGQVENLHLDLCCLAGNQEDLSKDSLGPTKSSKIEGAGTSISEPPSPISPYASESCGTLPLPLRPCGEGSEMVGKENSSPENKNWLLAMAAKRKAENPSPRSPSSQTPNSRRQSGKKLPSPVTITPSSMRKACTAAHRKSQEDFCGPEHSTEL
# modifications: FLAG tag
# notes: Cdt2 with I709, Y712, and F713 all mutated to alanine
# Key:
# Type in all cases: cell-based, human
# [1] = tested on: MCF7 cells, DNA-damage (CPD) sites; assay: Recruitment of GFP-Cdt2 constructs to DNA-damage sites in MCF7 cells; conditions: MCF7, UV-C 50 J/m^2, GFP fusions; two independent experiments
# Excerpt: Figure 2. The C-terminus of Cdt2 mediates Cdt2 recruitment to sites of damage. (A) A schematic drawing of the domain structure of Cdt2 and constructs used. (B) The C-terminal, but not the N-terminal, part of Cdt2 mediates recruitment to DNA damage sites. MCF7 cells transfected with the indicated plasmids were locally UV-C irradiated (50 J/m^2 through 5 μm pore diameter micropore filters), and recruitment of each Cdt2 construct to sites of damage was examined by staining with α-CPD antibody and GFP signal.
# For Western blotting, whole-cell lysates were prepared by lysing cell pellets directly in SDS–PAGE buffer. For immunofluorescence, U2OS or HEK293 cells were fixed in 4% paraformaldehyde (PFA; WAKO) for 10 min, permeabilized in 0.25% (vol/vol) Triton X-100 in PBS, and stained with the indicated antibodies as described previously. […] For cyclobutane pyrimidine dimer (CPDs) staining, MCF7 and HeLa cells were fixed in 4% PFA for 10 min, permeabilized in 0.3% Triton X-100 in PBS, and then incubated in 0.5 N NaOH for 5 min for DNA denaturation before immunofluorescence. Alexa488-conjugated anti-mouse and […] anti-rabbit antibodies were used as secondary antibodies with Hoechst 33258 to visualize DNA. […] Protein levels were analysed by ImageJ software.
# We used a method to induce DNA photoproducts within localized areas of the cell nucleus as described in Ishii et al (2010). To perform micropore UV irradiation, cells were cultured on cover slips, washed twice with PBS, and subsequently covered with an isopore polycarbonate membrane filter (Millipore) with a pore size of either 3 or 5 μm in diameter, and irradiated. UV irradiation was achieved using a UV lamp (SUV-16, As One, Japan) with a dose rate of 0.4 J/m^2·s, which was monitored with a UV radiometer (UVX Radiometer, UVP) at 254 nm, or with a UV box equipped with a UV-C lamp monitored with a VLX-3W radiometer (Vilber Lourmat) at 254 nm (CX-254 sensor). The filter was removed and cells were either fixed or cultured for the indicated time before fixation, and processed for immunofluorescence. […]
# [2] = tested on: DDB1, Cul4A; assay: Co-immunoprecipitation of DDB1 / Cul4A with FLAG-tagged Cdt2 constructs; conditions: anti-FLAG IP, cross-linked cells
# Excerpt: Before cell lysate preparation, cells were cross-linked.
# Figure 3. […] HEK293 cells were transfected with plasmids expressing the indicated Cdt2 fused to a C-terminal FLAG tag, cross-linked, and precipitated with anti-FLAG antibodies (arrows). […] The bands in the blank lanes for Cul4A blotting correspond to the cross-reacting bands to pre-stained marker. […] HEK293 cells were transfected with the indicated plasmids and treated as in A. * indicates nonspecific bands derived from IgGs. (C) A schematic drawing of the Cdt2 domain structure highlighting the C-terminal PIP box and a sequence alignment of PIP boxes in various organisms. The alanine-changed PIP box mutant of Cdt2 was shown (PIP-3A) together with Cdt1 PIP box. (D) HEK293 cells were transfected with Cdt2^WT or PIP box mutant (Cdt2^PIP-3A) C-terminally fused to a FLAG tag, treated as in B, and Cdt2 was precipitated with anti-FLAG resin.
# Control or Cdt2-FLAG expressing 293 cells that were UV irradiated (50 J/m^2), or not UV irradiated, or in the middle S phase (5 h after release from aphidicolon arrest) were fixed with 0.02% formaldehyde for 10 min, lysed using 0.1% Triton X-100-containing modified cytoskeleton (mCSK) buffer (10 mM Pipes, pH 7.9, 100 mM NaCl, 300 mM sucrose, 0.1% [vol/vol] Triton X-100, 1 mM phenylmethylsulfonyl fluoride, 10 mM β-glycerophosphate, 1 mMNa3VO4, 10 mM NaF), and then sonicated. After centrifugation (120,000g, Beckman Type 45Ti rotor, for 20 min at 4°C), the supernatants were mixed with anti-FLAG antibody-conjugated magnetic beads (M8823; Sigma-Aldrich) for 1 h at 4°C to obtain immunoprecipitates. The precipitate was washed with ice-cold 0.1% Triton X-100 containing mCSK buffer and subsequently suspended in SDS sample buffer.
# [3] = tested on: HEK293 cells, UV-irradiated sites; assay: Recruitment of FLAG-Cdt2 to UV-irradiated (XPA) sites in HEK293 cells; conditions: stable HEK293 cells, XPA-positive spots
# Experimental: Figure 6. The Cdt2 PIP box is important for its recruitment to DNA damage sites and replication foci and for poly-ubiquitination activity. (A) HEK293 and stable Cdt2^WT or Cdt2^PIP-3A cells were locally UV irradiated, and stained for XPA and FLAG (Cdt2). XPA-positive spots were examined for FLAG signal, and its frequency was counted (%). More than 50 spots were examined. bar:10 μm. […] Bar: 10 μm. […] (D) Whole-cell extracts were prepared from HEK293 and stably transfected cells of Cdt2^WT or Cdt2^PIP-3A cells, separated into soluble (Sup) and chromatin-containing insoluble (Ppt) fractions, and were examined for indicated proteins. The asterisk indicates nonspecific bands. (E) HEK293 and stably transfected cells of Cdt2^WT or Cdt2^PIP-3A were treated with MG132 for 3 h. […]
# For Western blotting, whole-cell lysates were prepared by lysing cell pellets directly in SDS–PAGE buffer. […] Protein levels were analysed by ImageJ software.
# We used a method to induce DNA photoproducts within localized areas of the cell nucleus as described in Ishii et al (2010). […] UV irradiation was achieved using a UV lamp (SUV-16, As One, Japan) with a dose rate of 0.4 J/m^2·s, which was monitored with a UV radiometer (UVX Radiometer, UVP) at 254 nm, or with a UV box equipped with a UV-C lamp monitored with a VLX-3W radiometer (Vilber Lourmat) at 254 nm (CX-254 sensor). […]
# [4] = tested on: p21 poly-ubiquitination; assay: Poly-ubiquitination of p21 in HEK293 cells; conditions: HEK293, MG132 3 h, chromatin fraction
# Experimental: Figure 6. The Cdt2 PIP box is important for its recruitment to DNA damage sites and replication foci and for poly-ubiquitination activity. (A) HEK293 and stable Cdt2^WT or Cdt2^PIP-3A cells were locally UV irradiated, and stained for XPA and FLAG (Cdt2). XPA-positive spots were examined for FLAG signal, and its frequency was counted (%). More than 50 spots were examined. bar:10 μm. […] Bar: 10 μm. […] (D) Whole-cell extracts were prepared from HEK293 and stably transfected cells of Cdt2^WT or Cdt2^PIP-3A cells, separated into soluble (Sup) and chromatin-containing insoluble (Ppt) fractions, and were examined for indicated proteins. The asterisk indicates nonspecific bands. (E) HEK293 and stably transfected cells of Cdt2^WT or Cdt2^PIP-3A were treated with MG132 for 3 h. Whole-cell extracts (WCE) were prepared, separated into soluble (Sup) and insoluble (Ppt) fractions, and blotted with the indicated antibodies.
# To consider this possibility, asynchronously growing control HEK293 cells and cells expressing Cdt2^WT or Cdt2^PIP-3A were treated with proteasome inhibitor MG132 and the levels of poly-ubiquitinated Cdt1 were examined. […] Cdt2^PIP-3A-expressing cells however had reduced level of both poly-ubiquitinated Cdt1 and p21 on chromatin.
Molecule,recruitment to DNA-damage sites [1],binding to DDB1 (and Cul4A) [2],recruitment to UV-irradiated sites [3],poly-ubiquitinated p21 on chromatin [4]
"Cdt2: Cdt2 tagged with GFP, transiently expressed in MCF7 cells",robustly detected at DNA-damage sites,,,
B1,,without significantly affecting interaction with Cul4A and DDB1,not recruited to UV-irradiated sites,reduced level
